Assay results published in patent US20230270119A1, “BIOSTIMULANT AND BIOPROTECTIVE PEPTIDES AND THEIR USE IN AGRICULTURE” (priority 2020, published 2023).

Assays:
B. cinerea = experiment: Seed treatment: B. cinerea necrosis areas on leaves of plants born from treated tomato seeds; assay type: in vivo, Botrytis cinerea on tomato; details: leaves of 4-week-old plants born from seeds treated at 100 fM; day 8; control 11 mm^2 (FIG. 16)
Method: The mean necrosis areas were measured 1, 3 and 5 days after inoculation of the pathogen. The letters a, b indicate the statistical significance of the data (ANOVA), each letter representing a statistical group. The present inventors also assessed the protective effect conferred by the treatment with the peptides object of the invention directly on the seed. Tomato seeds were treated with a composition comprising the peptides at a concentration of 100 fM or with 1×PBS for the controls, allowed to dry and germinated in the dark on sterile adsorbent paper at 24° C. 4-week-old plant leaves were detached from the plant and inoculated with 10 μl of spore solution in the internerve spaces and near the previously marked points.

S. littoralis larvae = tested on: S. littoralis larvae; set-up: species or system Spodoptera littoralis; details: in vivo, po
CAT2, SAM and APX2 genes = experiment: Salt stress gene expression in tomato plants irrigated with 100 fM peptides; assay type: in vivo; details: femtomolar; for activation of salt stress-responsive genes: 8 days after irrigation, 0 mM NaCl (FIG. 18A1, B1, C1); for tolerance to salt / induction of responsive genes: irrigated 7 days with 150 mM NaCl (FIG. 18A2, B2, C2)
Method: The analysis was carried out on the CAT2(A), SAM (B) and APX2 (C) genes. The asterisks indicate the statistical significance of the data by Student's t-test (*p<0.05; **p<0.01; ***p<0.001). […] An experiment was also set up to verify the efficiency of the peptides PS1-70, PS1-120 and SEQ ID NO.5, when administered at femtomolar concentrations, in promoting tolerance to a high salt stress condition.

Alternaria alternata = Alternaria alternata necrosis areas on treated tomato leaves; assay type: in vivo; details: 100 fM
Method: For the performance of assays on the phytopathogenic Botrytis cinerea and Alternaria alternata fungi, the present inventors used spores of this microorganism obtained from cultures on solid PDA (Potato Dextrose Agar) sporulation substrate. The plates were inoculated with 20 μl of a conidial suspension at a concentration of 1×10^6 spores/ml and incubated for 15 days at 25° C. in the presence of diffused light, so as to obtain complete sporulation. The spores were then collected in 5 ml of sterile water and, in order to remove the mycelium, were filtered through glass wool, washed with sterile distilled water and collected by centrifugation at room temperature. The concentration of spores suitable for inoculation (10^5-10^7 spores/ml) was determined by the serial dilution method using a Burker cell counting chamber for spore counting.
The assay was carried out on a detached leaf by taking a compound leaf for each treated tomato plant and for each control plant. Each leaflet of the compound leaf was marked with 3 markers in order to guide the subsequent application of the spores and detection of the pathogen developing necrotic areas.
The present inventors also performed assays aimed at determining the effects of exogenous application of the peptides of the invention on tomato plants against the development of the necrotrophic Alternaria alternata fungus (FIG. 14).
The positive effect of the treatment was statistically significant from day 1 of inoculation of the pathogen to day 8 where values of 24 mm^2 were reached on the control leaves, unlike the treated leaves where values of 8.4 and 8.0 mm^2 were recorded on leaves treated with the peptides PS1-70 and PS1-120 at a concentration of 100 fM (FIG. 14A); and values of 17 mm^2 were recorded on the control leaves and values of 8.3 mm^2, 7.9 mm^2, 8.9 mm^2, and 7.8 mm^2 were recorded on leaves treated with the peptides PS1-70, SEQ ID NO.8, SEQ ID NO.3 and SEQ ID NO.5, respectively, at a concentration of 100 fM (FIG. 14B).

[1] = Biometric parameters of tomato plants irrigated with peptides; assay type: in vivo; details: 100 fM; for root surface (root area): 14 days of salt stress 150 mM, 15 days after irrigation (FIG. 20A); for growth (fresh weight) of the aerial part: absence of salt (FIG. 20B)
Method: FIG. 20 illustrates the effect of irrigation treatment with the peptides PS1-70, PS1-120 and SEQ ID NO.5 at a concentration of 100 fM on the biometric parameters of the tomato plant. […] The asterisks indicate the statistical significance of the data by Student's t-test (*p<0.05). A few biometric parameters are shown in FIG. 20, measured after 14 days of continuous salt stress (150 mM) and 15 days after irrigation with the peptides PS1-70, PS1-120 and SEQ ID NO.5 at 100 fM concentrations, and the respective controls.

Botrytis cinerea [2] = experiment: Botrytis cinerea necrosis areas on treated eggplant leaves; assay type: in vivo, Botrytis cinerea on Solanum melongena; details: day 8, control 11 mm^2 (FIG. 12C)
Description: (§1) The present inventors also carried out tests aimed at determining the effects of exogenous application of the peptides of the invention, at picomolar and femtomolar concentrations, against the development of the necrotrophic fungus on Solanum melongena (eggplant) plants (FIG. 12C) and Vitis vinifera (vine) plants (FIG. 12D). […] The positive effect of the treatment was statistically significant from day 3 of inoculation of the pathogen to day 8 where values of 11 mm^2 were reached on the control leaves, unlike the treated leaves where values of 8.4 and 6.0 mm^2 were recorded on leaves treated with the peptides PS1-70 and PS1-120 at a concentration of 100 pM, and values of 6.2 and 4.10 mm^2 were recorded on leaves treated with said peptides at a concentration of 100 fM (FIG. 12C). Similar results were obtained on vine plants (FIG. 12D). The positive effect of the treatment was already statistically significant from day 1 of inoculation of the pathogen to day 8 where values of 43 mm^2 were reached on the control leaves, and values of 16.7 and 13.6 mm^2, respectively, were reached on leaves treated with the peptides PS1-70 and PS1-120 at a concentration of 100 pM, and values of 12 and 11.8 mm^2 were reached on leaves treated with said peptides at a concentration of 100 fM (FIG. 12D). Similar results were obtained on olive trees.

Botrytis cinerea [3] = experiment: Botrytis cinerea necrosis areas on treated vine leaves; assay type: in vivo, Botrytis cinerea on Vitis vinifera; details: day 8, control 43 mm^2 (FIG. 12D)
Description: as §1

[4] = day 8, control 24 mm^2 (FIG. 14A)

B1: PS1-70: recombinant peptide contained in the amino-terminal region of the Prosystemin polypeptide, free of Systemin; expressed in E. coli (protein)
chain: MGTPSYDIKNKGDDMQEEPKVKLHHEKGGDEKEKIIEKETPSQDINNKDTISSYVLRDDTQEIPKMEHEE
modifications: Peptide PS1-70
notes: recombinant peptide contained in the amino-terminal region of the Prosystemin polypeptide, free of Systemin; expressed in E. coli
- necrosis areas (B. cinerea): 7.1 mm^2
- direct toxic effect on survival and development of larvae (S. littoralis larvae): no effect on their survival and development
- activation of salt stress-responsive genes (CAT2, SAM and APX2 genes): able to activate a series of salt stress-responsive genes
- tolerance to salt / induction of responsive genes (CAT2, SAM and APX2 genes): more salt-tolerant than the untreated control plants
- necrosis areas (Alternaria alternata; day 8, control 17 mm^2 (FIG. 14B)): 8.3 mm^2
- necrosis areas (Alternaria alternata; [4]): 8.4 mm^2
- root surface (root area) [1]: greater root surface
- growth (fresh weight) of the aerial part [1]: able to promote the growth of the aerial part of the plant
- necrosis areas (Botrytis cinerea [2]; 100 pM): 8.4 mm^2
- necrosis areas (Botrytis cinerea [2]; 100 fM): 6.2 mm^2
- necrosis areas (Botrytis cinerea [3]; 100 pM): 16.7 mm^2
- necrosis areas (Botrytis cinerea [3]; 100 fM): 12 mm^2

B2: PS1-120: recombinant peptide contained in the amino-terminal region of the Prosystemin polypeptide, free of Systemin; expressed in E. coli (protein)
chain: MGTPSYDIKNKGDDMQEEPKVKLHHEKGGDEKEKIIEKETPSQDINNKDTISSYVLRDDTQEIPKMEHEEGGYVKEKIVEKETISQYIIKIEGDDDAQEKLKVEYEEEEYEKEKIVEKET
modifications: Peptide PS1-120
notes: as for B1
- necrosis areas (B. cinerea): 7.4 mm^2
- direct toxic effect on survival and development of larvae (S. littoralis larvae): no effect on their survival and development
- activation of salt stress-responsive genes (CAT2, SAM and APX2 genes): able to activate a series of salt stress-responsive genes
- tolerance to salt / induction of responsive genes (CAT2, SAM and APX2 genes): more salt-tolerant than the untreated control plants
- necrosis areas (Alternaria alternata; [4]): 8.0 mm^2
- root surface (root area) [1]: greater root surface
- growth (fresh weight) of the aerial part [1]: able to promote the growth of the aerial part of the plant
- necrosis areas (Botrytis cinerea [2]; 100 pM): 6.0 mm^2
- necrosis areas (Botrytis cinerea [2]; 100 fM): 4.10 mm^2
- necrosis areas (Botrytis cinerea [3]; 100 pM): 13.6 mm^2
- necrosis areas (Botrytis cinerea [3]; 100 fM): 11.8 mm^2
